Measurements as given in PMC3626704 (BMC Biochemistry, 2013).

The binders below were run against T1, 5-Helix (HIV-1 group M subtype B, HXB2 (gp41 …, stabilised)) (assay: ELISA). Details: one partner purified.
T1 construct: also called designed protein based on HIV-1 gp41

Binder | F_competitive (signal with 40 nM free 5-Helix / signal without) [fraction] | phage ELISA signal OD450 [OD450]
16F6 bivalent scFv on phage (scFv, V domains shown) VH: QVQLVQSGAEVRKPGASVKVSCKASGDTFSSYAISWVRQAPGQGLEWMGGIIPIFGTANYAQAFQGRVTITANESTSTAYMELSSLRSEDTAIYYCARDNPTLLGSDYWGAGTLVTVSS VL: DIQMTQSPSTLSASIGDRVTITCRASESISSILAWYQQKPGKAPKLLISNASRLASGAPSRFSGSGSGTDFTLTISSLQPDDFATYYCQQRSNYPFTFGGGTKLEIK | 0.8 | 3
25F12 bivalent scFv on phage (scFv, V domains shown) VH: QVQLVQSGAEVRKPGASVKVSCKASGDTFSSYAISWVRQAPGQGLEWMGGIIPIFGTANYAQAFQGRVTITANESTSTAYMELSSLRSEDTAIYYCARDNPTLLGSDYWGAGTLVTVSS VL: DIQMTQSPSTLSASIGDRVTITCRASEGIIGHLAWYQQKPGKAPKLLIYNASRLASGAPSRFSGSGSGTDFTLTISSLQPDDFATYYCQQRDDYPLTFGGGTKLEIK | 0.2 | 2.7
16E8 bivalent scFv on phage (scFv, V domains shown) VH: QVQLVQSGAEVRKPGASVKVSCKASGDTFSSYAISWVRQAPGQGLEWMGGIIPIFGTANYAQAFQGRVTITANESTSTAYMELSSLRSEDTAIYYCARDNPTLLGSDYWGAGTLVTVSS VL: DIQMTQSPSTLSASIGDRVTITCRASESIYGSLAWYQQKPGKAPKLLISHASHLASGAPSRFSGSGSGTDFTLTISSLQPDDFATYYCQQNDTYPHTFGGGTKLEIK | 0.4 | 3
25E1 bivalent scFv on phage (scFv, V domains shown) VH: QVQLVQSGAEVRKPGASVKVSCKASGDTFSSYAISWVRQAPGQGLEWMGGIIPIFGTANYAQAFQGRVTITANESTSTAYMELSSLRSEDTAIYYCARDNPTLLGSDYWGAGTLVTVSS VL: DIQMTQSPSTLSASIGDRVTITCRASEDIGGSLAWYQQKPGKAPKLLISHAYSLASGAPSRFSGSGSGTDFTLTISSLQPDDFATYYCQQHATYPHTFGGGTKLEIK | 0.1 | 3
16E12 bivalent scFv on phage (scFv, V domains shown) VH: QVQLVQSGAEVRKPGASVKVSCKASGDTFSSYAISWVRQAPGQGLEWMGGIIPIFGTANYAQAFQGRVTITANESTSTAYMELSSLRSEDTAIYYCARDNPTLLGSDYWGAGTLVTVSS VL: DIQMTQSPSTLSASIGDRVTITCRASEGIRRSLAWYQQKPGKAPKLLISNASHLASGAPSRFSGSGSGTDFTLTISSLQPDDFATYYCQQYYNYPRTFGGGTKLEIK | 0.1 | 3.1
25A6 bivalent scFv on phage (scFv, V domains shown) VH: QVQLVQSGAEVRKPGASVKVSCKASGDTFSSYAISWVRQAPGQGLEWMGGIIPIFGTANYAQAFQGRVTITANESTSTAYMELSSLRSEDTAIYYCARDNPTLLGSDYWGAGTLVTVSS VL: DIQMTQSPSTLSASIGDRVTITCRASEGIYDGLAWYQQKPGKAPKLLISRAYYLASGAPSRFSGSGSGTDFTLTISSLQPDDFATYYCQQRANYPHTFGGGTKLEIK | 0.1 | 3.1
25C5 bivalent scFv on phage (scFv, V domains shown) VH: QVQLVQSGAEVRKPGASVKVSCKASGDTFSSYAISWVRQAPGQGLEWMGGIIPIFGTANYAQAFQGRVTITANESTSTAYMELSSLRSEDTAIYYCARDNPTLLGSDYWGAGTLVTVSS VL: DIQMTQSPSTLSASIGDRVTITCRASEDIHDYLAWYQQKPGKAPKLLISRASRLASGAPSRFSGSGSGTDFTLTISSLQPDDFATYYCQQNDSYPYTFGGGTKLEIK | 0.5 | 0.7
16B7 bivalent scFv on phage (scFv, V domains shown) VH: QVQLVQSGAEVRKPGASVKVSCKASGDTFSSYAISWVRQAPGQGLEWMGGIIPIFGTANYAQAFQGRVTITANESTSTAYMELSSLRSEDTAIYYCARDNPTLLGSDYWGAGTLVTVSS VL: DIQMTQSPSTLSASIGDRVTITCRASENILRLLAWYQQKPGKAPKLLIYYASSLASGAPSRFSGSGSGTDFTLTISSLQPDDFATYYCQQRADYPYTFGGGTKLEIK | 0.6 | 3
25C4 bivalent scFv on phage (scFv, V domains shown) VH: QVQLVQSGAEVRKPGASVKVSCKASGDTFSSYAISWVRQAPGQGLEWMGGIIPIFGTANYAQAFQGRVTITANESTSTAYMELSSLRSEDTAIYYCARDNPTLLGSDYWGAGTLVTVSS VL: DIQMTQSPSTLSASIGDRVTITCRASESILGSLAWYQQKPGKAPKLLIYRASHLASGAPSRFSGSGSGTDFTLTISSLQPDDFATYYCQQYSNYPLTFGGGTKLEIK | 0.1 | 2.5
16G6 bivalent scFv on phage (scFv, V domains shown) VH: QVQLVQSGAEVRKPGASVKVSCKASGDTFSSYAISWVRQAPGQGLEWMGGIIPIFGTANYAQAFQGRVTITANESTSTAYMELSSLRSEDTAIYYCARDNPTLLGSDYWGAGTLVTVSS VL: DIQMTQSPSTLSASIGDRVTITCRASEGIRRSLAWYQQKPGKAPKLLISNASHLASGAPSRFSGSGSGTDFTLTISSLQPDDFATYYCQQYYNYPRTFGGGTKLEIK | 0.3 | 2.3
25B4 bivalent scFv on phage (scFv, V domains shown) VH: QVQLVQSGAEVRKPGASVKVSCKASGDTFSSYAISWVRQAPGQGLEWMGGIIPIFGTANYAQAFQGRVTITANESTSTAYMELSSLRSEDTAIYYCARDNPTLLGSDYWGAGTLVTVSS VL: DIQMTQSPSTLSASIGDRVTITCRASEGIRNGLAWYQQKPGKAPKLLISRASHLASGAPSRFSGSGSGTDFTLTISSLQPDDFATYYCQQYYAYPHTFGGGTKLEIK | 0.1 | 2.9
16E3 bivalent scFv on phage (scFv, V domains shown) VH: QVQLVQSGAEVRKPGASVKVSCKASGDTFSSYAISWVRQAPGQGLEWMGGIIPIFGTANYAQAFQGRVTITANESTSTAYMELSSLRSEDTAIYYCARDNPTLLGSDYWGAGTLVTVSS VL: DIQMTQSPSTLSASIGDRVTITCRASEGIRYGLAWYQQKPGKAPKLLISRASRLASGAPSRFSGSGSGTDFTLTISSLQPDDFATYYCQQHYAYPHTFGGGTKLEIK | 0.7 | 3
2H10 bivalent scFv on phage (scFv, V domains shown) VH: QVQLVQSGAEVRKPGASVKVSCKASGDTFSSYAISWVRQAPGQGLEWMGGIIPIFGTANYAQAFQGRVTITANESTSTAYMELSSLRSEDTAIYYCARDNPTLLGSDYWGAGTLVTVSS VL: DIQMTQSPSTLSASIGDRVTITCRASEDIYRSLAWYQQKPGKAPKLLISRASRLASGAPSRFSGSGSGTDFTLTISSLQPDDFATYYCQQYSNYPLTFGGGTKLEIK | 0.1 | 1.9
16D10 bivalent scFv on phage (scFv, V domains shown) VH: QVQLVQSGAEVRKPGASVKVSCKASGDTFSSYAISWVRQAPGQGLEWMGGIIPIFGTANYAQAFQGRVTITANESTSTAYMELSSLRSEDTAIYYCARDNPTLLGSDYWGAGTLVTVSS VL: DIQMTQSPSTLSASIGDRVTITCRASENIRGSLAWYQQKPGKAPKLLIYRASRLASGAPSRFSGSGSGTDFTLTISSLQPDDFATYYCQQHSDYPHTFGGGTKLEIK | 0.7 | 3
